Results reported in PMC4559766 (Scientific Reports, 2015).

Tests used:
[1] = molecular target: T1, Human TNFRI of ML-la cells (human, UniProt P19438 30-455); experiment: radioligand binding; competition: ML-la cells (1 × 10^6 cells/well) preincubated with anti-p60 or anti-p80 antibody (25 °C, 30 min) to block TNFRI or TNFRII, then 125I-labeled TNF α with unlabeled TNF α or RMP16 (10^-11 to 10^-5 M) in RPMI 1640 with 10% fetal calf serum, 25 °C, 1 h; cell-bound radioactivity counted; conditions: one partner purified
T1 construct: also called p60; source: endogenous, on ML-la cells (human myelomonoblastic leukemia cell line)
T1 sequence (looked up): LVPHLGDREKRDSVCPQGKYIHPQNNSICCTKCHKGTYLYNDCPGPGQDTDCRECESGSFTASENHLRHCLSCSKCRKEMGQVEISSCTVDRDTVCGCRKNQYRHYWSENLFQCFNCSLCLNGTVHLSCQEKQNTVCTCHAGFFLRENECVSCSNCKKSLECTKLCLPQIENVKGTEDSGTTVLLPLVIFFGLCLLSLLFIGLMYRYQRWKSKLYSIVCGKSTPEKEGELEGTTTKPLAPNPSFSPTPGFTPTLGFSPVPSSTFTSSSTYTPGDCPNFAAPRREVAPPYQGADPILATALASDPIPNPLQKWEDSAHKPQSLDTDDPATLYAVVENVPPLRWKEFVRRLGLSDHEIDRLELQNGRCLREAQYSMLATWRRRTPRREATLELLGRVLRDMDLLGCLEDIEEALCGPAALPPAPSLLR

Human serum albumin [2] = molecular target: T2, Human serum albumin (human, UniProt P02768 25-609); experiment: cell-based or functional assay
Mouse serum albumin [3] = molecular target: T3, Mouse serum albumin (mouse, UniProt P07724 25-608); experiment: ITC; VP-ITC calorimeter; peptide serially diluted and injected; KD by Microcal ORIGIN Ver. 5.0; method by refs 48, 49; conditions: both partners purified
T3 construct: serum albumin, mouse; also called MSA; source: bought: Sigma

Human serum albumin [4] = molecular target: T2, Human serum albumin; experiment: as above; conditions: both partners purified
[5] = molecular target: T4, Recombinant human TNFRI, disulfide-linked homodimer (human, UniProt P19438 30-455); experiment: as above; conditions: both partners purified
Mouse serum albumin [6] = molecular target: T3, Mouse serum albumin; experiment: SPR; BIAcore 3000; peptide serially diluted and injected; KD by BIAcore kinetic evaluation Ver. 4.1; method by refs 48, 49; conditions: both partners purified
Human serum albumin [7] = molecular target: T2, Human serum albumin; experiment: as above; conditions: both partners purified
[8] = molecular target: T4, Recombinant human TNFRI, …; experiment: as above; conditions: both partners purified

T3 sequence (P07724 25-608): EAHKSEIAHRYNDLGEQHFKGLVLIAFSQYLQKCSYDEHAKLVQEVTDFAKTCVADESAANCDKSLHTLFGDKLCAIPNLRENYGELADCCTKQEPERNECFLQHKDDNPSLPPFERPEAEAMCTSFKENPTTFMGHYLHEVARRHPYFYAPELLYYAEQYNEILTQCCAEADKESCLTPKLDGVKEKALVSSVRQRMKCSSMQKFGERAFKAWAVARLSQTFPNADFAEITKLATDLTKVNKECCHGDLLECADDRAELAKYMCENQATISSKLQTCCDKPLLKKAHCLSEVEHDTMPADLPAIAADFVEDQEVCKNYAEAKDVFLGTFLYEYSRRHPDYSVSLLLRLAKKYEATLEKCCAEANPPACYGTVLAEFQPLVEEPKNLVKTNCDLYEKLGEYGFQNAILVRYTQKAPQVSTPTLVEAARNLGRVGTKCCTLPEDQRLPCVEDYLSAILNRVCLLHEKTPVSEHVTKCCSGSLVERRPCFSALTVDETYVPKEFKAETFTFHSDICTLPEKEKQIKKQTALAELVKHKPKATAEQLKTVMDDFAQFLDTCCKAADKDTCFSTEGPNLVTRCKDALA

B1: RMP16, recombinant TNF α-derived polypeptide (peptide)
chain: MWQRPSSWIEGRLLTHTISRIAVSYQTKVNLL
notes: P16, TNF α segment of amino acid residues 75-94, human; also called recombinant peptide RMP16
For B1, the IC50 [1] was 15.1 nM, the “in vitro Factor Xa enzyme digestion half-life of RMP16 (10 μM) in the presence of HSA (2 μM), against 9.72 h without HSA” value (Human serum albumin [2]) was 15.8 h and the Kd (Mouse serum albumin [3]) was 894 nM. The Kd (Human serum albumin [4]) was 822 nM, the Kd [5] was 20.4 nM and the Kd (Mouse serum albumin [6]) was 925 nM. For the same binder, the Kd (Human serum albumin [7]) was 875 nM and the Kd [8] was 21.3 nM.
